This assay concerns the target yeast 80S ribosome (S. cerevisiae). Put plainly: crystal structure.

“hypusinated eIF5A from Saccharomyces cerevisiae (from UniProt P23301 1-157) (natural protein)” returned an eIF5A-occupancy refinement (%) of 97%. Substance “unmodified eIF5A from S. cerevisiae (from UniProt P23301 1-157) (natural protein)” came in with an eIF5A-occupancy refinement (%) of 88%.
